Test results reported in patent US10501734B2, “Compositions and methods of use thereof for making polypeptides with many instances of nonstandard amino acids” (Yale University, priority 2014, dated 2019).
“Also recorded” adds a separate entry of the source. Where two headings read alike, the source gives them in different places.

Tests used:
[1] = ATP-PPi exchange assay (amino acid activation); format: biochemical; details: for Fold change: relative to progenitor pAcFRS
Procedure: A 25 μl ATP-PPi exchange reaction contained the following components: 100 mM HEPES-KOH (pH 7.5), 30 mM KCl, 10 mM MgCl2, 2 mM DTT, 2 mM KF, 2 mM NaPPi, 5 mM ATP, […], 2 μCi/μl of […] (PerkinElmer) and varied concentrations of amino acids (0.25, 0.5, 1.25, 2.5, 5, 10, and 20 mM, respectively). The reactions were incubated at 37° C. Time points were taken at 2 minutes, 5 minutes and 10 minutes by plotting 1 μl aliquots from the reaction immediately to the PEI-cellulose plates (Merck). For each reaction, 1 μl of blank reaction mixture containing no enzymes was set as background. The reaction mixtures were separated on the plates in 1 M urea and 1 M monopotassium phosphate. The plates were then scanned in a Molecular Dynamics Storm 860 phosphorimager (Amersham Biosciences). The ratio of ATP to PPi was determined to monitor reaction progress. The kinetic constants were derived from plotting initial velocity of a series of reactions that contained varied concentrations of amino acids. The data were analyzed by GraFit 5.0 (Erithacus Software).

GFP(3TAG) [2] = format: cell-based, E. coli; details: chromosomally integrated AARS
Procedure: (§1) Liquid cell cultures of strains harboring chromosomally integrated OTSs and GFP reporter plasmids were inoculated from frozen stocks and grown to confluence overnight. Cultures were then inoculated at 1:20 dilution in LBmin media supplemented with 30 μg/ml kanamycin. Strains were inoculated by addition of 1:20 confluent cell culture (grown overnight) and allowed to grow at 34° C. to an OD600 of 0.5-0.8 in a shaking plate incubator at 650 r.p.m (˜3 h). AARS expression was then induced by the addition of 0.2% arabinose, GFP expression was induced by the addition of 60 ng/ul anhydrotetracycline, and the appropriate nsAA was added to a concentration of 1 mM. Cells were incubated at 34° C. for an additional 16 h. Liquid cell cultures of strains harboring plasmid-based OTSs and GFP or ELP-GFP reporter plasmids were inoculated from frozen stocks and grown to confluence overnight. Cultures were then inoculated at 1:20 dilution in 2×YT media supplemented with 30 μg/ml kanamycin and 20 μg/ml chloramphenicol. […] Cells were allowed to grow at 34° C. to an OD600 of 0.5-0.8 in a shaking plate incubator at 650 r.p.m (˜3 h), reporter protein expression was then induced by the addition of 60 ng/ul anhydrotetracycline, and cells were incubated at 34° C. for an additional 16 h.
(§2) For 384 well plate-based assays, fluorescence and OD600 were directly measured following expression. For 96 well plate-based assays, cells were centrifuged at 4,000 g for 4 min. Supernatant medium was removed and cells were resuspended in PBS. This process was repeated twice with PBS. GFP fluorescence was measured on a Biotek spectrophotometric plate reader using excitation and emission wavelengths of 395 and 509 nm, respectively). Fluorescence signals were normalized by dividing the fluorescence counts by the OD600 reading. The nsAAs used in this study were purchased from Sigma-Aldrich (St. Louis, Mo.), Chemlmpex (Wood Dale, Ill.), and Bachem (Torrance, Calif.). Solutions of nsAAs (50 mM) were made in water or 50 mM NaOH; these stock solutions were diluted 50- or 100-fold (to 1 mM final concentration) into medium used for bacterial growth.

tRNA = test: Aminoacylation assay (tRNA charging); format: biochemical; details: for Fold change: relative to progenitor pAcFRS
Procedure: Template plasmid containing tRNA gene was purified with the plasmid maxi kit (Qiagen), and 100 μg of plasmid was digested with BstNI (New England Biolabs). The BstNI digested template DNA was purified by phenol chloroform extraction, followed by ethanol precipitation and resolved in double distilled water. A His-tagged T7 RNA polymerase was purified over column of Ni-NTA resin according to manufacturer's instructions (Qiagen). The transcription reaction [40 mM Tris (pH 8); 4 mM each of UTP, CTP, GTP, and ATP at pH 7.0; 22 mM MgCl2; 2 mM spermidine; 10 mM DTT; 6 μg pyrophosphatase (Roche Applied Science); 60 μg/mL BstNI digested DNA template, approximately 0.2 mg/ml T7 RNA polymerase] was performed in 10 ml reaction volumes for overnight at 37° C. The tRNA was purified on 12% denaturing polyacrylamide gel containing 8 M urea and TBE buffer (90 mM Tris, 90 mM boric acid, 2 mM EDTA). UV shadowing illuminates the pure tRNA band, which is excised and extracted three times with 1M sodium acetate pH 5.3 at 4° C. The tRNA extractions were then ethanol precipitated, dissolved in RNase-free distilled water, pooled, and finally desalted using a Biospin 30 column (BioRad). The ratio of aminoacylated tRNA to total tRNA was determined to monitor reaction progress.
The tRNA was refolded by heating to 100° C. for 5 min and slow cooling to room temperature. At 65° C., MgC12, was added to a final concentration of 10 mM to aid folding. A His-tagged CCA adding enzyme was purified over column of Ni-NTA resin according to manufacturer's instructions (Qiagen). 16 μM folded tRNA in 50 mM Tris (pH 8.0), 20 mM MgCl2, 5 mM DTT and 50 μM NaPPi was incubated at room temperature for 1 hour with approximately 0.2 mg/ml CCA-adding enzyme and 1.6 μCi/μl of [α-32P]-labeled ATP (PerkinElmer). The sample was phenol/chloroform extracted and then passed over a Bio-spin 30 column (Bio-Rad) to remove excess ATP.
A 20 μl aminoacylation reaction contained the following components: 50 mM HEPES-KOH (pH 7.2), 25 mM KCl, 10 mM MgCl2, 5 mM DTT, 10 mM ATP, 25 μg/ml pyrophosphatase (Roche Applied Science), 2 mM amino acids. All plateau tRNA aminoacylation levels were determined at 37° C. according to the reactions conditions described above with 500 nM enzyme, 5 μM unlabeled tRNA plus 100 nM 32P-labeled tRNA. Time points were taken at 5 minutes, 20 minutes and 60 minutes by removing 2 μl aliquots from the reaction and immediately quenching the reaction into an ice-cold 3 μl quench solution [0.66 μg/μl nuclease P1 (Sigma) in 100 mM sodium citrate (pH 5.0)]. For each reaction, 2 μl of blank reaction mixture containing no enzymes was added to the quench solution as the start time point. The nuclease P1 mixture was then incubated at room temperature for 30 min and 1 μl aliquots were spotted on PEI-cellulose plates (Merck) and developed in running buffer containing 5% acetic acid and 100 mM ammonium acetate. Radioactive spots for AMP and AA-AMP (representing free tRNA and aminoacyl-tRNA, respectively) were separated and then visualized and quantified by phosphor imaging by a Molecular Dynamics Storm 860 phosphorimager (Amersham Biosciences). The ratio of aminoacylated tRNA to total tRNA was determined to monitor reaction progress.

GFP(3TAG) [3] = test: nsAA library screening, GFP(3TAG) fluorescence in 384 well plates; format: cell-based, E. coli; details: GFP(3TAG) production in the presence of pAcF, pAzF and 236 other nsAAs
Procedure: as §1
as §2, with “growth. […]” for “growth.”

| Molecule | Km ([1]; nsAA pAcF) | kcat ([1]; nsAA pAcF) | Fold change ([1]; nsAA pAcF) | higher GFP(3TAG) production compared with the progenitor enzyme (GFP(3TAG) [2]; pAcF) | Km (tRNA; nsAA pAcF) | kcat (tRNA; nsAA pAcF) | Fold change (tRNA; nsAA pAcF) | nsAA specificity (polyspecificity) (GFP(3TAG) [3]) | Km ([1]; nsAA pAzF) | kcat ([1]; nsAA pAzF) | Fold change ([1]; nsAA pAzF) | higher GFP(3TAG) production compared with the progenitor enzyme (GFP(3TAG) [2]; pAzF) | Km (tRNA; nsAA pAzF) | kcat (tRNA; nsAA pAzF) | Fold change (tRNA; nsAA pAzF) | selectivity toward pAcF over pAzF (GFP(3TAG) [2]; GFP(3TAG) expression) |
| --- | --- | --- | --- | --- | --- | --- | --- | --- | --- | --- | --- | --- | --- | --- | --- | --- |
| pAcFRS.1.t2: pAcFRS variant A167D, R257C, F261E, SEQ ID NO: 6 (protein) MDEFEMIKRNTSEIISEEELREVLKKDEKSALIGFEPSGKIHLGHYLQIKKMIDLQNAGFDIIILLADLHAYLNQKGELDEIRKIGDYNKKVFEAMGLKAKYVYGSEFQLDKDYTLNVYRLALKTTLKRARRSMELIAREDENPKVAEVIYPIMQVNGCHYRGVDVDVGGMEQRKIHMLARELLPKKVVCIHNPVLTGLDGEGKMSSSKGNFIAVDDSPEEIRAKIKKAYCPAGVVEGNPIMEIAKYFLEYPLTIKCPEKEGGDLTVNSYEELESLFKNKELHPMRLKNAVAEELIKILEPIRKRL | 1.69 ± 0.44 mM | 6.30 ± 0.46 ×10^−2 s^−1 | 5.47 | ~15 fold | 27 ± 3 µM | 1.03 ± 0.06 ×10^−3 s^−1 | 5.22 | polyspecifity for at least pAcF, pAzF, StyA, 4IF, 4BrF, 4ClF, 4MeF, 4Cf3F, MeY, 4NO2F, 4BuF, BuY, 2NaA, PheF |  |  |  |  |  |  |  |  |
| pAzFRS.2: pAcFRS variant E107T, F108Y, Q109M, SEQ ID NO: 13 (protein) MDEFEMIKRNTSEIISEEELREVLKKDEKSALIGFEPSGKIHLGHYLQIKKMIDLQNAGFDIIILLADLHAYLNQKGELDEIRKIGDYNKKVFEAMGLKAKYVYGSTYMLDKDYTLNVYRLALKTTLKRARRSMELIAREDENPKVAEVIYPIMQVNGCHYRGVDVAVGGMEQRKIHMLARELLPKKVVCIHNPVLTGLDGEGKMSSSKGNFIAVDDSPEEIRAKIKKAYCPAGVVEGNPIMEIAKYFLEYPLTIKRPEKFGGDLTVNSYEELESLFKNKELHPMRLKNAVAEELIKILEPIRKRL |  |  |  |  |  |  |  | polyspecific for at least pAcF, pAzF, StyA, 4IF, 4BrF, 4ClF, 4MeF, 4Cf3F, MeY, 4NO2F, 4BuF, BuY, 2NaA, PheF | 1.25 ± 0.11 mM | 4.13 ± 0.86 ×10^−2 s^−1 | 2.26 | ~12 fold | 32 ± 11 µM | 0.73 ± 0.06 ×10^−3 s^−1 | 3.67 |  |
| pAcFRS.2: pAcFRS variant L65V, A167D, SEQ ID NO: 7 (protein) MDEFEMIKRNTSEIISEEELREVLKKDEKSALIGFEPSGKIHLGHYLQIKKMIDLQNAGFDIIIVLADLHAYLNQKGELDEIRKIGDYNKKVFEAMGLKAKYVYGSEFQLDKDYTLNVYRLALKTTLKRARRSMELIAREDENPKVAEVIYPIMQVNGCHYRGVDVDVGGMEQRKIHMLARELLPKKVVCIHNPVLTGLDGEGKMSSSKGNFIAVDDSPEEIRAKIKKAYCPAGVVEGNPIMEIAKYFLEYPLTIKRPEKFGGDLTVNSYEELESLFKNKELHPMRLKNAVAEELIKILEPIRKRL | 3.13 ± 1.73 mM | 5.28 ± 0.79 ×10^−2 s^−1 | 2.48 |  | 31 ± 7 µM | 0.58 ± 0.09 ×10^−3 s^−1 | 2.56 | polyspecifity for at least pAcF, pAzF, StyA, 4IF, 4BrF, 4ClF, 4MeF, 4Cf3F, MeY, 4NO2F, 4BuF, BuY, 2NaA, PheF | 6.4 ± 0.78 mM | 4.08 ± 0.20 ×10^−2 s^−1 | 0.44 |  | 33 ± 8 µM | 0.18 ± 0.02 ×10^−3 s^−1 | 0.88 | increase in selectivity |
| pAzFRS.1: pAcFRS variant D158V, I159M, L162D, A167Y, SEQ ID NO: 10 (protein) MDEFEMIKRNTSEIISEEELREVLKKDEKSALIGFEPSGKIHLGHYLQIKKMIDLQNAGFDIIILLADLHAYLNQKGELDEIRKIGDYNKKVFEAMGLKAKYVYGSEFQLDKDYTLNVYRLALKTTLKRARRSMELIAREDENPKVAEVIYPIMQVNVMHYDGVDVYVGGMEQRKIHMLARELLPKKVVCIHNPVLTGLDGEGKMSSSKGNFIAVDDSPEEIRAKIKKAYCPAGVVEGNPIMEIAKYFLEYPLTIKRPEKFGGDLTVNSYEELESLFKNKELHPMRLKNAVAEELIKILEPIRKRL |  |  |  |  |  |  |  | specific for pAzF; also recorded: exceptional specificity toward pAzF with almost complete exclusion of any other nsAA; also recorded: both more efficient and more specific for pAzF than previously reported pAzFRSs | 1.18 ± 0.21 mM | 4.61 ± 0.18 ×10^−2 s^−1 | 2.68 | ~3.5 fold | 38 ± 5 µM | 0.46 ± 0.18 ×10^−3 s^−1 | 1.48 |  |
